# Values of other authors in publication PMC7590900.
# Target: CXCR7 (Homo sapiens) (UniProt P25106)
# UniProt P25106, sequence (P25106 whole entry): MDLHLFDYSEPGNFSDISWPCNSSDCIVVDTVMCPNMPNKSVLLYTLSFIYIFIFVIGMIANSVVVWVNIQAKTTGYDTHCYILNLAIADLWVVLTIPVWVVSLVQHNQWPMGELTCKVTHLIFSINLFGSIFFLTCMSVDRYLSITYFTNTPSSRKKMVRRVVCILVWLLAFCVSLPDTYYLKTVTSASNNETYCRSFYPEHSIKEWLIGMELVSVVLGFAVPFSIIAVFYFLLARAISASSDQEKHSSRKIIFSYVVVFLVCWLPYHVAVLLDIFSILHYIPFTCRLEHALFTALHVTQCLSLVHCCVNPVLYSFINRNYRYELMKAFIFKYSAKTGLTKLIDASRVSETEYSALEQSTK
substance,measurement,value
CXCL11 (from UniProt O14625),Kd,3.5 nM
